The target of experiment [1] is T1, Human CD32a(H) (Sino Biological, 10374-H27H1-B) (human, UniProt P12318 34-218).
T1 construct: Loaded on streptavidin biosensors
T1 sequence (looked up): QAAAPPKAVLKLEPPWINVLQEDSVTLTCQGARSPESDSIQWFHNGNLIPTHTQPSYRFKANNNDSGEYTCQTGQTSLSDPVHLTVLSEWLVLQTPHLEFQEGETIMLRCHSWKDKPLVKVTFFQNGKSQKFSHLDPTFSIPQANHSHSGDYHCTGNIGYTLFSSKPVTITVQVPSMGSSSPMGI
Kind of experiment: BLI (Octet RED 96), Human CD32a(H) on streptavidin biosensor, steady state analysis. In general terms: In BLI a coated tip is dipped into the sample, and binding shifts an interference pattern.

The target in experiment [2] is T2, Human FcRn (ACROBiosystems, FCM-H82W4) (human, UniProt P55899 24-297; P61769 21-119).
T2 construct: Loaded on streptavidin biosensors
T2 sequence (P55899 24-297 limits assumed, chain 1 of 2): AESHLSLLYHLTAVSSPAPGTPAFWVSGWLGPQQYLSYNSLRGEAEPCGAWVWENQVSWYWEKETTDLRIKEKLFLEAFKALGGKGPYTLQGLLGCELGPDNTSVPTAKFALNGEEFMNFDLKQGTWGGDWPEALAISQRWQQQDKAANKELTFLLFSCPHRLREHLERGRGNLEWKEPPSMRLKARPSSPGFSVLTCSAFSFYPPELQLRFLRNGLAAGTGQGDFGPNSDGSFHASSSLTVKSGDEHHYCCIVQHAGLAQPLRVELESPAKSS
T2 sequence (P61769 21-119 limits assumed, chain 2 of 2): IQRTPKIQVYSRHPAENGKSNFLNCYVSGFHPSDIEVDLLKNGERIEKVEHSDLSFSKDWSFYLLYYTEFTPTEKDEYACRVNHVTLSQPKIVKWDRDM
Briefly: BLI (Octet RED 96), Human FcRn on streptavidin biosensor, steady state analysis.

The target in experiment [3] is T3, Human CD16a(F) (Sino Biological, 10389-H27H-B) (human, UniProt P08637 17-208).
T3 construct: Loaded on streptavidin biosensors
T3 sequence (P08637 17-208 limits assumed): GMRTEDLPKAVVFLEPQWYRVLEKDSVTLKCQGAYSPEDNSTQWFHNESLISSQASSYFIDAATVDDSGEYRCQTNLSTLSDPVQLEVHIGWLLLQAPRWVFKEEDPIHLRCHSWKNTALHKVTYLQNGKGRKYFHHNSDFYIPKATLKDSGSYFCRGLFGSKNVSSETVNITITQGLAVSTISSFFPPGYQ
Briefly: BLI (Octet RED 96), Human CD16a(F) on streptavidin biosensor, 1:1 fit.

Experiment [4] deals with T4, Human CD16a(V) (Sino Biological, 10389-H27H1-B) (human, UniProt P08637 17-208).
T4 construct: Loaded on streptavidin biosensors
T4 sequence (P08637 17-208 F176V limits assumed): as the sequence (P08637 17-208 limits assumed) above, with F160V counted along it
Kind of experiment: BLI (Octet RED 96), Human CD16a(V) on streptavidin biosensor, 1:1 fit.

Experiment [5] concerns the target T3, Human CD16a(F) (Sino Biological, …). Kind of experiment: BLI; KD of CLDQMIX-CA808.1-IgG1 against KD of CLDQMIX-CA808.1-IgG1 VLPLL.
Experiment [6] concerns the target T4, Human CD16a(V) (Sino Biological, …). Described as above.
Experiment [7] addresses T1, Human CD32a(H) (Sino Biological, …). The experiment is described as above.
Experiment [8] addresses T2, Human FcRn (ACROBiosystems, FCM-H82W4). The description is as above.
The next experiment deals with T5, Human CD32b (human, UniProt P31994 43-217, limits assumed).
T5 sequence (looked up): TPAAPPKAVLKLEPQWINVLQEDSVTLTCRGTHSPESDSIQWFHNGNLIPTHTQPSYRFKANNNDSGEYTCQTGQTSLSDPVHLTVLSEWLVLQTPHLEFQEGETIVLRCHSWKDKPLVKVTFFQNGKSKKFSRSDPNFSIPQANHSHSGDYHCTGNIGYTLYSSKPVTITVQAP
Kind of experiment: BLI (Octet RED 96), Human CD32b on streptavidin biosensor, steady state analysis.

Experiment [9] addresses T6, Claudin18.1 on cells (human, UniProt P56856 1-261).
T6 construct: whole, on cells
Kind of experiment: flow cytometry on 293T-Claudin18.1 cells, antibody at 3 µg/mL.

The target of experiment [10] is T7, Claudin18.2 on cells (human, UniProt P56856-2 1-261).
T7 construct: whole, on cells; the cell line of each result is named under assay or readout
Briefly: flow cytometry on 293T-Claudin18.2 cells, antibody at 0.75 µg/mL.

Experiment [11] deals with T6, Claudin18.1 on cells. Briefly: flow cytometry on 293T-Claudin18.1 cells, antibody at 1.5 µg/mL.
In experiment [12] the target is T7, Claudin18.2 on cells. Kind of experiment: flow cytometry on 293T-Claudin18.2 cells, antibody at 1.5 µg/mL.
The target in experiment [13] is T7, Claudin18.2 on cells. Briefly: flow cytometry on NUGC4 cells, antibody at 3 µg/mL. (In flow cytometry, cells or beads pass a laser one at a time.)
For experiment [14], the target named is T7, Claudin18.2 on cells. Briefly: flow cytometry on 293T-Claudin18.2 cells, antibody at 0.375 µg/mL.
In experiment [15] the target is T7, Claudin18.2 on cells. Kind of experiment: cell-based or functional assay.
The target in experiment [16] is T7, Claudin18.2 on cells. Kind of experiment: flow cytometry on NUGC4 cells, antibody at 1.5 µg/mL.
Experiment [17] deals with T7, Claudin18.2 on cells. Kind of experiment: flow cytometry on 293T-Claudin18.2 cells, antibody at 3 µg/mL.
Experiment [18] concerns the target T6, Claudin18.1 on cells. Kind of experiment: flow cytometry on 293T-Claudin18.1 cells, antibody at 0.75 µg/mL.
Experiment [19] has as its target T7, Claudin18.2 on cells. Kind of experiment: cell-based or functional assay. This is another data set of the same source.
Experiment [20] has as its target T7, Claudin18.2 on cells. Kind of experiment: flow cytometry on NUGC4 cells, antibody at 0.75 µg/mL.
Experiment [21] has as its target T6, Claudin18.1 on cells. Briefly: flow cytometry on 293T-Claudin18.1 cells, antibody at 0.375 µg/mL.
Experiment [22] has as its target T7, Claudin18.2 on cells. Kind of experiment: cell-based or functional assay. The source holds these as a separate data set.
Experiment [23] has as its target T7, Claudin18.2 on cells. Kind of experiment: flow cytometry on 293T-Claudin18.2 cells, antibody at 0.75 µg/mL. This is another data set of the same source.
The target in experiment [24] is T7, Claudin18.2 on cells. Briefly: flow cytometry on 293T-Claudin18.2 cells, antibody at 0.375 µg/mL. The source holds these as a separate data set.
Experiment [25] addresses T7, Claudin18.2 on cells. Briefly: flow cytometry on 293T-Claudin18.2 cells, antibody at 3 µg/mL. The source holds these as a separate data set.
Experiment [26] has as its target T7, Claudin18.2 on cells. Briefly: flow cytometry on 293T-Claudin18.2 cells, antibody at 1.5 µg/mL. The source holds these as a separate data set.

Changes are numbered by the printed parent chain.

B1: CLDQMix-CA808.1-IgG1-VLPLL (antibody)
heavy: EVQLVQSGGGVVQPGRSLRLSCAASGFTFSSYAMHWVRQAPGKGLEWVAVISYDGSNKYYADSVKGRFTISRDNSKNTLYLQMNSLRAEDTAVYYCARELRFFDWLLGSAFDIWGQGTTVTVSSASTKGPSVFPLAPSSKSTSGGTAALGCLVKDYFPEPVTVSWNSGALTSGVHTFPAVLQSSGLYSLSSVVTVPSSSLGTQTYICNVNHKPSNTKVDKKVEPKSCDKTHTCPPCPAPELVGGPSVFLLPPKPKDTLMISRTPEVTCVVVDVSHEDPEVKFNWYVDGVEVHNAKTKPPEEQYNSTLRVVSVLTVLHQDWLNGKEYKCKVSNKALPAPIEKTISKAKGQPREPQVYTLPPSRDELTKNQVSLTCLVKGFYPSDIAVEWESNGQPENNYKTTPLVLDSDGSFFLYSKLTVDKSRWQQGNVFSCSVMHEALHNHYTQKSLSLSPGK
light: DIVMTQSPSSLSASVGDRVTITCRASQGIRNDLGWYQQKPGKAPKLLIYAASSLQSGVPSRFSGSGSGTDFTLTISSLQPEDFATYYCLQDYNYPRTFGQGTKVEIKRTVAAPSVFIFPPSDEQLKSGTASVVCLLNNFYPREAKVQWKVDNALQSGNSQESVTEQDSKDSTYSLSSTLTLSKADYEKHKVYACEVTHQGLSSPVTKSFNRGEC
The term Kd denotes the concentration at which binding is half-saturated. In the case of B1, the Kd in experiment [1] is 300 nM; in experiment [2] it was 5.27 nM; in experiment [3] it was 119 nM; in experiment [4], 54.1 nM; with Human CD32b, 3000 nM. The “Ratio of KD” value in experiment [5] was 4.75; in experiment [6] it was 1.98; in experiment [7] it was 1.37; in [8], 1.31.

B2: CLDQMIX-CA808.1-IgG1 (antibody)
heavy: not shown
light: B1 light
notes: Complete IgG1 made in HEK293 cells from the scFv clone; also called CLDMIX-CA808.1-IgG1
With B2, the Kd in experiment [1] was 410 nM; in [2] it was 6.93 nM; in experiment [3], 566 nM; in [4] it was 107 nM; with Human CD32b, 3200 nM. Moreover, the mean fluorescence intensity is 47500 in the experiment with Claudin18.1 on cells [9]; 753000 with Claudin18.2 on cells [10]; 28900 with Claudin18.1 on cells [11]; 1.2e+06 with Claudin18.2 on cells [12]; 185000 with Claudin18.2 on cells [13]; 535000 with Claudin18.2 on cells [14]. Moreover, the mean fluorescence intensity was determined as 138000 in the experiment with Claudin18.2 on cells [16]; 1.38e+06 with Claudin18.2 on cells [17]; 29400 with Claudin18.1 on cells [18]; 75600 in the experiment with Claudin18.2 on cells [20]; 26000 with Claudin18.1 on cells [21]. In the experiment with Claudin18.2 on cells [15], the “ADCC EC50 (µg/mL), NUGC4 target cells, Jurkat reporter effector cells, Bio-Glo” value is 1.26 µg/mL. Also, in the experiment with Claudin18.2 on cells [19], the “ADCC inhibition rate, %, antibody 0.1 µg/mL, 293T-Claudin18.2 target cells, PBMC effectors, LDH” value was 39.4%. Further, the “ADCC inhibition rate, %, antibody 1 µg/mL, 293T-Claudin18.2 target cells, PBMC effectors, LDH” value with Claudin18.2 on cells [19] turned out to be 63.6%. In addition, the “ADCC inhibition rate, %, antibody 10 µg/mL, 293T-Claudin18.2 target cells, PBMC effectors, LDH” value with Claudin18.2 on cells [19] worked out at 57.4%.

B3: CLD393-C1002-IgG1 (antibody, V domains shown)
VH: QVQLVESGGGVVQPGRSLRLSCAASGFTFSSHDMHWVRQAPGKGLEWVADISDDGSNKNYADSVKGRFTISRDNSKNTLYLQMNSLRAEDAAVYYCAREGLRWFGEFYYSYGMDVWGQGTTVTVSS
VL: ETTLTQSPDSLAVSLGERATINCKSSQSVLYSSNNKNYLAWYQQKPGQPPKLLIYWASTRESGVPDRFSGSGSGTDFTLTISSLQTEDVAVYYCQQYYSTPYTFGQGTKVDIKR
notes: Complete IgG1 made in HEK293 cells; also called CLD387-C1002-IgG1
Turning to B3, the “ADCC inhibition rate, %, antibody 0.5 µg/mL, 293T-Claudin18.2 target cells, PBMC effectors, LDH” value in the experiment with Claudin18.2 on cells [22] amounted to 22%. Besides, in the experiment with Claudin18.2 on cells [22], the “ADCC inhibition rate, %, antibody 5 µg/mL, 293T-Claudin18.2 target cells, PBMC effectors, LDH” value was determined as 49%. Moreover, the “ADCC inhibition rate, %, antibody 50 µg/mL, 293T-Claudin18.2 target cells, PBMC effectors, LDH” value with Claudin18.2 on cells [22] stood at 64%. Also, the mean fluorescence intensity with Claudin18.2 on cells [23] was found to be 852000; in the experiment with Claudin18.2 on cells [13], 5170; with Claudin18.2 on cells [24], 406000; in the experiment with Claudin18.2 on cells [25], 1.33e+06; in the experiment with Claudin18.2 on cells [16] it was 4890; in the experiment with Claudin18.2 on cells [20] it was 4950. In the experiment with Claudin18.2 on cells [26], this molecule had a mean fluorescence intensity of 1.16e+06.

B4: CLD393-C1024-IgG1 (antibody, V domains shown)
VH: B3 VH with Q1E, E6Q, H32Y
VL: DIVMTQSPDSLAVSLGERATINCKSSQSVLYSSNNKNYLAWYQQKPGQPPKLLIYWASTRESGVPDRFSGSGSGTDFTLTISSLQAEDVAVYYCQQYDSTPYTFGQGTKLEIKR
notes: Complete IgG1 made in HEK293 cells; also called CLD383-C1024-IgG1
Take B4: the “ADCC inhibition rate, %, antibody 0.5 µg/mL, 293T-Claudin18.2 target cells, PBMC effectors, LDH” value with Claudin18.2 on cells [22] stood at 15%. For the same molecule, the “ADCC inhibition rate, %, antibody 5 µg/mL, 293T-Claudin18.2 target cells, PBMC effectors, LDH” value with Claudin18.2 on cells [22] came to 47%. Further, the “ADCC inhibition rate, %, antibody 50 µg/mL, 293T-Claudin18.2 target cells, PBMC effectors, LDH” value with Claudin18.2 on cells [22] was 48%. The mean fluorescence intensity was 787000 with Claudin18.2 on cells [23]; 6140 in the experiment with Claudin18.2 on cells [13]; 308000 with Claudin18.2 on cells [24]; 1.37e+06 with Claudin18.2 on cells [25]; 5640 with Claudin18.2 on cells [16]; 5210 with Claudin18.2 on cells [20]. For the same molecule, the mean fluorescence intensity with Claudin18.2 on cells [26] turned out to be 1.03e+06.

These data come from patent US20220204609A1 (SHANDONG BOAN BIOTECHNOLOGY, published 2022).
